The results in this text go back to PMC3857619 (2013).

In the experiment the target is recombinant PTB (Homo sapiens (Human), UniProt P26599). The experiment in a line: in vitro co-IP (anti-PTB) with western blot.
Chain of recombinant PTB (P26599 whole entry): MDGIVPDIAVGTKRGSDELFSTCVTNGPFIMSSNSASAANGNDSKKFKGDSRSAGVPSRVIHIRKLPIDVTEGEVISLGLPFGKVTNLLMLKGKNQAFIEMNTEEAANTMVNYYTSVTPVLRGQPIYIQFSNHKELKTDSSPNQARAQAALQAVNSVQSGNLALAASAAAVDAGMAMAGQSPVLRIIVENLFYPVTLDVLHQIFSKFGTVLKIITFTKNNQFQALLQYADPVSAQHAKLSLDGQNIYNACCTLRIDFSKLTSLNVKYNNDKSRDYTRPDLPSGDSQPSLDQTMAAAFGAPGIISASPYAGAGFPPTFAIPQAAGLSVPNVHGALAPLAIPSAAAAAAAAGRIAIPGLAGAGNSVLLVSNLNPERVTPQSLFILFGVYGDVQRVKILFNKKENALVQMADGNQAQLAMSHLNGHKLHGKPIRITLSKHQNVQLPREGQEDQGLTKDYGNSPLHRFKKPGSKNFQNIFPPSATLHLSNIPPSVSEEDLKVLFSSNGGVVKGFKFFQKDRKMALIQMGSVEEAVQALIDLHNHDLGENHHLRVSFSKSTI

B1: recombinant hnRNPA1 (protein)
chain: MSKSESPKEPEQLRKLFIGGLSFETTDESLRSHFEQWGTLTDCVVMRDPNTKRSRGFGFVTYATVEEVDAAMNARPHKVDGRVVEPKRAVSREDSQRPGAHLTVKKIFVGGIKEDTEEHHLRDYFEQYGKIEVIEIMTDRGSGKKRGFAFVTFDDHDSVDKIVIQKYHTVNGHNCEVRKALSKQEMASASSSQRGRSGSGNFGGGRGGGFGGNDNFGRGGNFSGRGGFGGSRGGGGYGGSGDGYNGFGNDGGYGGGGPGYSGGSRGYGSGGQGYGNQGSGYGGSGSYDSYNNGGGGGFGGGSGSNFGGGGSYNDFGNYNNQSSNFGPMKGGNFGGRSSGPYGGGGQYFAKPRNQGGYGGSSSSSSYGSGRRF
Regarding B1, the binding result is reported as “binds”.
